Experimental data reported in patent EP4792821A2 (Beijing Youcare Kechuang Pharmaceutical Technology Co., Ltd., dated 2026).
The star is where a group is joined. Succinyl(4-O-cholesteryl) = CC(C)CCC[C@@H](C)[C@H]1CC[C@H]2[C@@H]3CC=C4C[C@@H](OC(=O)CCC(=O)*)CC[C@]4(C)[C@H]3CC[C@]12C

B1: Compound 34 (peptide)
peptide: Ac-FDEEVNKKIEQSLKINQSLEEIRKSEAAAKK(Succinyl(4-O-cholesteryl))-NH2
SMILES: CC[C@H](C)[C@H](NC(=O)[C@H](CCC(=O)O)NC(=O)[C@H](CCC(=O)O)NC(=O)[C@H](CC(C)C)NC(=O)[C@H](CO)NC(=O)[C@H](CCC(N)=O)NC(=O)[C@H](CC(N)=O)NC(=O)[C@@H](NC(=O)[C@H](CCCCN)NC(=O)[C@H](CC(C)C)NC(=O)[C@H](CO)NC(=O)[C@H](CCC(N)=O)NC(=O)[C@H](CCC(=O)O)NC(=O)[C@@H](NC(=O)[C@H](CCCCN)NC(=O)[C@H](CCCCN)NC(=O)[C@H](CC(N)=O)NC(=O)[C@@H](NC(=O)[C@H](CCC(=O)O)NC(=O)[C@H](CCC(=O)O)NC(=O)[C@H](CC(=O)O)NC(=O)[C@H](Cc1ccccc1)NC(C)=O)C(C)C)[C@@H](C)CC)[C@@H](C)CC)C(=O)N[C@@H](CCCNC(=N)N)C(=O)N[C@@H](CCCCN)C(=O)N[C@@H](CO)C(=O)N[C@@H](CCC(=O)O)C(=O)N[C@@H](C)C(=O)N[C@@H](C)C(=O)N[C@@H](C)C(=O)N[C@@H](CCCCN)C(=O)N[C@@H](CCCCNC(=O)CCC(=O)O[C@H]1CC[C@@]2(C)C(=CC[C@H]3[C@@H]4CC[C@H]([C@H](C)CCCC(C)C)[C@@]4(C)CC[C@@H]32)C1)C(N)=O
B2: Compound 35 (peptide)
peptide: Ac-SISQVNEKINEIQSLEEKSDKLLKSEAAAKK(Succinyl(4-O-cholesteryl))-NH2
SMILES: CC[C@H](C)[C@H](NC(=O)[C@H](CO)NC(C)=O)C(=O)N[C@@H](CO)C(=O)N[C@@H](CCC(N)=O)C(=O)N[C@H](C(=O)N[C@@H](CC(N)=O)C(=O)N[C@@H](CCC(=O)O)C(=O)N[C@@H](CCCCN)C(=O)N[C@H](C(=O)N[C@@H](CC(N)=O)C(=O)N[C@@H](CCC(=O)O)C(=O)N[C@H](C(=O)N[C@@H](CCC(N)=O)C(=O)N[C@@H](CO)C(=O)N[C@@H](CC(C)C)C(=O)N[C@@H](CCC(=O)O)C(=O)N[C@@H](CCC(=O)O)C(=O)N[C@@H](CCCCN)C(=O)N[C@@H](CO)C(=O)N[C@@H](CC(=O)O)C(=O)N[C@@H](CCCCN)C(=O)N[C@@H](CC(C)C)C(=O)N[C@@H](CC(C)C)C(=O)N[C@@H](CCCCN)C(=O)N[C@@H](CO)C(=O)N[C@@H](CCC(=O)O)C(=O)N[C@@H](C)C(=O)N[C@@H](C)C(=O)N[C@@H](C)C(=O)N[C@@H](CCCCN)C(=O)N[C@@H](CCCCNC(=O)CCC(=O)O[C@H]1CC[C@@]2(C)C(=CC[C@H]3[C@@H]4CC[C@H]([C@H](C)CCCC(C)C)[C@@]4(C)CC[C@@H]32)C1)C(N)=O)[C@@H](C)CC)[C@@H](C)CC)C(C)C
B3: Compound 37 (peptide)
peptide: Ac-FDELVNKKIEKIEEVNKKSLKLLESEAAAKK(Succinyl(4-O-cholesteryl))-NH2
SMILES: CC[C@H](C)[C@H](NC(=O)[C@H](CCCCN)NC(=O)[C@H](CCCCN)NC(=O)[C@H](CC(N)=O)NC(=O)[C@@H](NC(=O)[C@H](CC(C)C)NC(=O)[C@H](CCC(=O)O)NC(=O)[C@H](CC(=O)O)NC(=O)[C@H](Cc1ccccc1)NC(C)=O)C(C)C)C(=O)N[C@@H](CCC(=O)O)C(=O)N[C@@H](CCCCN)C(=O)N[C@H](C(=O)N[C@@H](CCC(=O)O)C(=O)N[C@@H](CCC(=O)O)C(=O)N[C@H](C(=O)N[C@@H](CC(N)=O)C(=O)N[C@@H](CCCCN)C(=O)N[C@@H](CCCCN)C(=O)N[C@@H](CO)C(=O)N[C@@H](CC(C)C)C(=O)N[C@@H](CCCCN)C(=O)N[C@@H](CC(C)C)C(=O)N[C@@H](CC(C)C)C(=O)N[C@@H](CCC(=O)O)C(=O)N[C@@H](CO)C(=O)N[C@@H](CCC(=O)O)C(=O)N[C@@H](C)C(=O)N[C@@H](C)C(=O)N[C@@H](C)C(=O)N[C@@H](CCCCN)C(=O)N[C@@H](CCCCNC(=O)CCC(=O)O[C@H]1CC[C@@]2(C)C(=CC[C@H]3[C@@H]4CC[C@H]([C@H](C)CCCC(C)C)[C@@]4(C)CC[C@@H]32)C1)C(N)=O)C(C)C)[C@@H](C)CC
B4: Compound 36 (peptide)
peptide: Ac-VNKKIEEEKQSLKKQSDKIEESDENEAAAKK(Succinyl(4-O-cholesteryl))-NH2
SMILES: CC[C@H](C)[C@H](NC(=O)[C@H](CCCCN)NC(=O)[C@H](CC(=O)O)NC(=O)[C@H](CO)NC(=O)[C@H](CCC(N)=O)NC(=O)[C@H](CCCCN)NC(=O)[C@H](CCCCN)NC(=O)[C@H](CC(C)C)NC(=O)[C@H](CO)NC(=O)[C@H](CCC(N)=O)NC(=O)[C@H](CCCCN)NC(=O)[C@H](CCC(=O)O)NC(=O)[C@H](CCC(=O)O)NC(=O)[C@H](CCC(=O)O)NC(=O)[C@@H](NC(=O)[C@H](CCCCN)NC(=O)[C@H](CCCCN)NC(=O)[C@H](CC(N)=O)NC(=O)[C@@H](NC(C)=O)C(C)C)[C@@H](C)CC)C(=O)N[C@@H](CCC(=O)O)C(=O)N[C@@H](CCC(=O)O)C(=O)N[C@@H](CO)C(=O)N[C@@H](CC(=O)O)C(=O)N[C@@H](CCC(=O)O)C(=O)N[C@@H](CC(N)=O)C(=O)N[C@@H](CCC(=O)O)C(=O)N[C@@H](C)C(=O)N[C@@H](C)C(=O)N[C@@H](C)C(=O)N[C@@H](CCCCN)C(=O)N[C@@H](CCCCNC(=O)CCC(=O)O[C@H]1CC[C@@]2(C)C(=CC[C@H]3[C@@H]4CC[C@H]([C@H](C)CCCC(C)C)[C@@]4(C)CC[C@@H]32)C1)C(N)=O
B5: Compound 39 (peptide)
peptide: Ac-WDEFDASISQNEKINQSLEEIRKSDELLHNNALEAAAKK(Succinyl(4-O-cholesteryl))-NH2
SMILES: CC[C@H](C)[C@H](NC(=O)[C@H](CO)NC(=O)[C@H](C)NC(=O)[C@H](CC(=O)O)NC(=O)[C@H](Cc1ccccc1)NC(=O)[C@H](CCC(=O)O)NC(=O)[C@H](CC(=O)O)NC(=O)[C@H](Cc1c[nH]c2ccccc12)NC(C)=O)C(=O)N[C@@H](CO)C(=O)N[C@@H](CCC(N)=O)C(=O)N[C@@H](CC(N)=O)C(=O)N[C@@H](CCC(=O)O)C(=O)N[C@@H](CCCCN)C(=O)N[C@H](C(=O)N[C@@H](CC(N)=O)C(=O)N[C@@H](CCC(N)=O)C(=O)N[C@@H](CO)C(=O)N[C@@H](CC(C)C)C(=O)N[C@@H](CCC(=O)O)C(=O)N[C@@H](CCC(=O)O)C(=O)N[C@H](C(=O)N[C@@H](CCCNC(=N)N)C(=O)N[C@@H](CCCCN)C(=O)N[C@@H](CO)C(=O)N[C@@H](CC(=O)O)C(=O)N[C@@H](CCC(=O)O)C(=O)N[C@@H](CC(C)C)C(=O)N[C@@H](CC(C)C)C(=O)N[C@@H](Cc1c[nH]cn1)C(=O)N[C@@H](CC(N)=O)C(=O)N[C@@H](CC(N)=O)C(=O)N[C@@H](C)C(=O)N[C@@H](CC(C)C)C(=O)N[C@@H](CCC(=O)O)C(=O)N[C@@H](C)C(=O)N[C@@H](C)C(=O)N[C@@H](C)C(=O)N[C@@H](CCCCN)C(=O)N[C@@H](CCCCNC(=O)CCC(=O)O[C@H]1CC[C@@]2(C)C(=CC[C@H]3[C@@H]4CC[C@H]([C@H](C)CCCC(C)C)[C@@]4(C)CC[C@@H]32)C1)C(N)=O)[C@@H](C)CC)[C@@H](C)CC

biological target: F protein of RSV A long virus strain (Respiratory Syncytial Virus (RSV) A …, UniProt P12568 26-574); assay: cell-based or functional assay
Sequence (P12568 26-574): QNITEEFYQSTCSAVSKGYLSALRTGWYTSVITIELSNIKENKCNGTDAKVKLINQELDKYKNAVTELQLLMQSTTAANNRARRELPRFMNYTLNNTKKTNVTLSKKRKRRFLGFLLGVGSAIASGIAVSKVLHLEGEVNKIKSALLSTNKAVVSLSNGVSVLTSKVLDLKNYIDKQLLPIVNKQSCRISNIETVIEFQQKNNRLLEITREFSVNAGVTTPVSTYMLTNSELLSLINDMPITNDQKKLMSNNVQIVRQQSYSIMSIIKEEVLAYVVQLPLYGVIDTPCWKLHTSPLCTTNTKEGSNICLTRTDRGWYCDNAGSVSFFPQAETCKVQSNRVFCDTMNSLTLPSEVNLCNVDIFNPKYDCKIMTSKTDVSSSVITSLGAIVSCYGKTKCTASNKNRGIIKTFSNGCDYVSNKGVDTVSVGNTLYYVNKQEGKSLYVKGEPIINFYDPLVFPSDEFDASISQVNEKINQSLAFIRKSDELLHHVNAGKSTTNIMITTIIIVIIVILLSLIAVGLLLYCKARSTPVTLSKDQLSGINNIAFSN

Ac-FEVNRRRIEQSLEKSLESLEEEEHSDKKLHNELH-NH2 [Compound 46] and B1 cannot be ordered by “IC50/nM, plaque reduction, RSV A long on HEp-2 cells (Table 2, Cell fusion inhibition activity)” value: greater than 8000 nM for the first, greater than 2000 nM for the second.

B2 and B3 are within 1.5-fold of each other in “IC50/nM, plaque reduction, RSV A long on HEp-2 cells (Table 2, Cell fusion inhibition activity)” value: 5530 nM for the first, 5230 nM for the second.

Going from B4 to Ac-FDASLLKIEEEKKKIEELLKLHNESDKKLEEV-NH2 [Compound 4], the “IC50/nM, plaque reduction, RSV A long on HEp-2 cells (Table 2, Cell fusion inhibition activity)” value rises from 6820 nM to greater than 8000 nM.

For B5, the “IC50/nM, plaque reduction, RSV A long on HEp-2 cells (Table 2, Cell fusion inhibition activity)” value was 113 nM.
